Reference: US20190231821A1 (US Dept. of Health and Human Services, published 2019)

Biological target: HERV-E peptide … (SEQ ID NO: 1) presented by HLA-A11 on cells (human)
Assay: cell-based or functional assay

B1: HLA-A11 restricted HERV-E reactive T cell receptor (TCR α chain SEQ ID NO: 4, TCR β chain SEQ ID NO: 5) (TCR, V domains shown)
V domain 1: GIQVEQSPPDLILQEGANSTLRCNFSDSVNNLQWFHQNPWGQLINLFYIPSGTKQNGRLSATTVATERYSLLYISSSQTTDSGVYFCAVRGGADGLTFGKGTHLIIQP
V domain 2: DTEVTQTPKHLVMGMTNKKSLKCEQHMGHRAMYWYKQKAKKPPELMFVYSYEKLSINESVPSRFSPECPNSSLLNLHLHALQPEDSALYLCASSPPNEKLFFGSGTQLSVLE
In the case of B1, the “interferon-γ secretion by ELISA (FIG. 8)” value is reported as over 2 fold over background.
